Assay results as given in US20100004432, “APTAMER AGAINST MIDKINE AND USE THEREOF” (RIBOMIC INC., published 2010).

B1: SEQ ID NO:61-3 (ssRNA)
RNA: GGGAAGGAGGAAGUGCACAGGGGUUGGUGUCGGGUGCAC
modifications: g(F)g(F)g(F)a(M)a(M)g(F)g(F)a(M)g(F)g(F)a(M)a(M)g(M)u(F)g(M)c(F)a(M)c(F)a(M)g(F)g(M)g(M)g(M)u(F)u(F)g(M)g(M)u(F)g(M)u(F)c(F)g(F)g(F)g(M)u(F)g(M)c(F)a(M)c(F); M 2'-OMe, F 2'-F
B2: SEQ ID NO:61-4 (ssRNA)
RNA: B1 RNA
modifications: ggga(M)a(M)gga(M)gga(M)a(M)g(M)u(F)g(M)c(F)a(M)c(F)aggg(M)g(M)u(F)u(F)g(M)g(M)u(F)g(M)u(F)c(F)gggu(F)g(M)c(F)a(M)c(F); M 2'-OMe, F 2'-F
B3: SEQ ID NO:20-2 (ssRNA)
RNA: GGGAGAGGAACGACGAGGAGUAGCCGGAAAGAAGGCGGCGUC
modifications: 2'-F pyrimidines; 2'-OMe purines of first stem: gggagaggaac(F)g(M)a(M)c(F)g(M)aggagu(F)agc(F)c(F)ggaaagaaggc(F)ggc(F)g(M)u(F)c(F)
B4: SEQ ID NO:20-11 (ssRNA)
RNA: B3 RNA
modifications: 2'-F pyrimidines; 20-5 pattern plus 2'-OMe: c(F)g(M)a(M)c(F), gga(M)aa(M)gaagg, c(F)g(M)g(M)c(F)g(M)u(F)c(F)

Target: T1, midkine (full-length) (Homo sapiens, UniProt P21741 P21741:23-143)
T1 sequence: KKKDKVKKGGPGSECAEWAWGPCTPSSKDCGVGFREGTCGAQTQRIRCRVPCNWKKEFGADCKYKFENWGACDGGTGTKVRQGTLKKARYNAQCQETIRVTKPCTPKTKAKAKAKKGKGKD
Test: cell_activity; 500 nM RNA
Details: tags: expressed in yeast
Description: (§1) Chem. 276 (19), 15868-15875, 2001). […] 30 μL of 1.5 μM midkine was applied to the outer surface of the membrane of Chemotaxicell (membrane pore diameter 8 μm, manufactured by Kurabo) to immobilize the midkine to the outer surface of the membrane. The midkine-immobilized Chemotaxicell was placed on a 24-well culture plate containing 500 μL of a medium (supplemented with 0.3% bovine serum albumin, Dulbecco's Modified Eagle's medium) supplemented with each RNA aptamer added thereto at 100 nM. 200 μL of UMR106 cells were placed in the inner layer of the Chemotaxicell chamber at a density of 1×10⁶ cells/mL, and cultured at 37° C. for 4 hours. The cells remaining in the inner layer of the Chemotaxicell chamber were removed, and the cells that had infiltrated and adhered to the midkine-applied surface were fixed with methanol. The Chemotaxicell chamber was immersed in a 1% aqueous solution of Crystal Violet for 30 minutes to stain the cells. After the Chemotaxicell chamber was washed with distilled water and dried, the pigment was extracted with a mixed solution of 200 μL of 1% SDS and 1% triton X100. 150 μL of the extract was transferred to a 96-well microplate, and its absorbance at 590 nm was determined.
(§2) The aptamer shown by SEQ ID NO:4 is 77 nucleotides long, having the 2′ position of the ribose of the pyrimidine nucleotide thereof fluoro-substituted. To enable the chemical synthesis, to reduce the toxicity, and to improve the stability in the blood, miniaturization and stabilization of this aptamer were performed. The operations of miniaturization and stabilization were performed on the basis of the secondary structure estimated by the MFOLD program, and the activity was evaluated by a cell migration inhibition experiment. In the cell migration inhibition experiment, the RNA concentration was 100 nM or 500 nM. Since some errors occur in experimental results depending on cell condition, a previously assayed sample was included as a positive control in each measurement.

Compared with GGGAGAGGAACGACGAGAACAGCCGGAAAGAAGGCGGCGUC (ssRNA, 2'-F pyrimidines) [SEQ ID NO:25], GGGAGAGGAACGACGAGGGUAGCCGGAAAGAAGGCGGCGUC (ssRNA, 2'-F pyrimidines) [SEQ ID NO:27] is lower in activity: 81 % of SEQ 4 inhibition for the first, 78 % of SEQ 4 inhibition for the second.

First: GGGAGAGGAACGACGAGAGUAGCCGGAAAGAAGGCGGCGUC (ssRNA, 2'-F pyrimidines) [SEQ ID NO:26]
Second: GGCGAGGAGUAGCCGGAAAGAAGGCGGCGCC (ssRNA, 2'-F pyrimidines) [SEQ ID NO:28]
The activity of the first is lower: 18 % of SEQ 4 inhibition for the first, 71 % of SEQ 4 inhibition for the second.

Compared with GACGAGGAGUAGCCGGAAAGAAGGCGGCGUC (ssRNA, 2'-F pyrimidines) [SEQ ID NO:29], GGGAGAGGAACGACGAGGAGUAGCCGAAAGGCGGCGUC (ssRNA, 2'-F pyrimidines) [SEQ ID NO:23] is lower in activity: 74 % of SEQ 4 inhibition for the first, 66 % of SEQ 4 inhibition for the second.

In the case of GGGAGAGGAACGACGAGGAGUAGCCUUCGGGCGGCGUC (ssRNA, 2'-F pyrimidines) [SEQ ID NO:24], the activity is reported as 65 % of SEQ 4 inhibition.

Target: T1, midkine (full-length)
Test: cell_activity; UMR106 migration inhibition, 500 nM RNA
Details: tags: expressed in yeast
Description: 30 μL of 1.5 μM midkine was applied to the outer surface of the membrane of Chemotaxicell (membrane pore diameter 8 μm, manufactured by Kurabo) to immobilize the midkine to the outer surface of the membrane. The midkine-immobilized Chemotaxicell was placed on a 24-well culture plate containing 500 μL of a medium (supplemented with 0.3% bovine serum albumin, Dulbecco's Modified Eagle's medium) supplemented with each RNA aptamer added thereto at 100 nM. 200 μL of UMR106 cells were placed in the inner layer of the Chemotaxicell chamber at a density of 1×10⁶ cells/mL, and cultured at 37° C. for 4 hours. The cells remaining in the inner layer of the Chemotaxicell chamber were removed, and the cells that had infiltrated and adhered to the midkine-applied surface were fixed with methanol. The Chemotaxicell chamber was immersed in a 1% aqueous solution of Crystal Violet for 30 minutes to stain the cells. After the Chemotaxicell chamber was washed with distilled water and dried, the pigment was extracted with a mixed solution of 200 μL of 1% SDS and 1% triton X100. 150 μL of the extract was transferred to a 96-well microplate, and its absorbance at 590 nm was determined.
as §2, with “NO:5” for “NO:4”, “2′-position” for “2′ position”, “nucleotide” for “nucleotide thereof”, “The RNA concentration in” for “In”, “experiment” for “experiment, the RNA concentration”

First: B1
Second: GGGAAGGAGGAAGUGCACAGGGGUUGGUGUCGGGUGCAC (ssRNA, as 61-4 plus 5' branched PEG40k and 3' idT) [SEQ ID NO:61-5]
The activity of the first is higher: 80 % of SEQ ID NO:40 for the first, 40 % of SEQ ID NO:40 for the second.

Compared with GGGAAGGAGGAAGUGCACAGGGGUUGGUGUCGGGUGCAC (ssRNA, as 61-4 plus PEG30k at both ends) [SEQ ID NO:61-6], GGGAAGGAGGAAGUGCACAGGGGUUGGUGUCGGGUGCAC (ssRNA, as 61-4 plus 2'-OMe: c(F)g(M)g(M)gu(F) near 3' end) [SEQ ID NO:61-7] is lower in activity: 57 % of SEQ ID NO:40 for the first, 46 % of SEQ ID NO:40 for the second.

Going from GGGAAGGAGGAAGUGCACAGGGGUUGGUGUCGGGUGCAC (ssRNA, 5' PEG2000; as 61-4 but a(M)gg(M)g(M)g(M) and ggg(M)u(F)) [SEQ ID NO:61-9] to B2, the activity rises from 39 % of SEQ ID NO:40 to 86 % of SEQ ID NO:40.

With GGGAAGGAGGAAGUGCACAGGGGUUGGUGUCGGGUGCAC (ssRNA, as 61-4 but a(M)g(M)gg(M)g(M) in place of aggg(M)g(M)) [SEQ ID NO:61-8] the activity was 54 % of SEQ ID NO:40.

Target: T1, midkine (full-length)
Test: as above
Details: tags: expressed in yeast
Remark: another data set of the same source
Description: as §1, §2

Going from GGGAGAGGAACGACGAGGAGUAGCCGGAAAGAAGGCGGCGUC (ssRNA, 2'-F pyrimidines; 2'-OMe on all purines of the 5' single-stranded part g1-a10) [SEQ ID NO:20-1] to B3, the activity falls from 109 % of SEQ ID NO:4 to 84 % of SEQ ID NO:4.

Going from GGGAGAGGAACGACGAGGAGUAGCCGGAAAGAAGGCGGCGUC (ssRNA, 2'-F pyrimidines; 20-1 pattern plus 2'-OMe G in bulge: gag(M)g(M)ag(M)u(F)ag) [SEQ ID NO:20-6] to GGGAGAGGAACGACGAGGAGUAGCCGGAAAGAAGGCGGCGUC (ssRNA, 2'-F pyrimidines; 2'-OMe G in loop: c(F)c(F)g(M)g(M)aaag(M)aagg) [SEQ ID NO:20-4], the activity falls from 69 % of SEQ ID NO:4 to 60 % of SEQ ID NO:4.

Going from GGGAGAGGAACGACGAGGAGUAGCCGGAAAGAAGGCGGCGUC (ssRNA, 2'-F pyrimidines; 20-1 pattern plus 2'-OMe A in loop: gga(M)aa(M)gaagg) [SEQ ID NO:20-7] to B4, the activity falls from 88 % of SEQ ID NO:4 to 76 % of SEQ ID NO:4.
